Columns and labels:
HeLa Kyoto [1] = assay: solubility change mitosis vs G1/S (difference of NP-40 vs SDS log2 ratios) (log2 ratio difference); higher = more soluble in mitosis
HeLa Kyoto [2] = assay: solubility in G1/S (NP-40 vs SDS abundance) (log2 ratio); higher = more soluble; details: cell cycle stage: G1/S
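Throughout, for solubility change mitosis vs G1/S (difference of NP-40 vs SDS log2 ratios): synchronized HeLa Kyoto cells (double thymidine block for G1/S, nocodazole release for mitosis), protein amounts in NP-40 versus SDS lysates quantified by mass spectrometry, three biological replicates.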
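Throughout, for solubility in G1/S (NP-40 vs SDS abundance): HeLa Kyoto cells arrested at G1/S by double thymidine block, proteins quantified by TMT10plex mass spectrometry in mild NP-40 versus SDS extracts, three biological replicates.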

MAFK, sequence (chain, as listed by the source): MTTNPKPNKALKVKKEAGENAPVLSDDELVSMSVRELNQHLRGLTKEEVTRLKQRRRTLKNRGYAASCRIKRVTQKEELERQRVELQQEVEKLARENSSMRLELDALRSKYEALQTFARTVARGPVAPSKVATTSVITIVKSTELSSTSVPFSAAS

Substance	solubility change mitosis (log2) (HeLa Kyoto [1])	solubility in G1/S (log2) (HeLa Kyoto [2])
MAELRQVPGGRETPQGELRPEVVEDEVPRSPVAEEPGGGGSSSSEAKLSPREEEELDPRIQEELEHLNQASEEINQVELQLDEARTTYRRILQESARKLNTQGSHLGSCIEKARPYYEARRLAKEAQQETQKAALRYERAVSMHNAAREMVFVAEQGVMADKNRLDPTWQEMLNHATCKVNEAEEERLRGEREHQRVTRLCQQAEARVQALQKTLRRAIGKSRPYFELKAQFSQILEEHKAKVTELEQQVAQAKTRYSVALRNLEQISEQIHARRRGGLPPHPLGPRRSSPVGAEAGPEDMEDGDSGIEGAEGAGLEEGSSLGPGPAPDTDTLSLLSLRTVASDLQKCDSVEHLRGLSDHVSLDGQELGTRSGGRRGSDGGARGGRHQRSVSL [SH3BP5L]	-0.0461	0.128
MAELYVKPGNKERGWNDPPQFSYGLQTQAGGPRRSLLTKRVAAPQDGSPRVPASETSPGPPPMGPPPPSSKAPRSPPVGSGPASGVEPTSFPVESEAVMEDVLRPLEQALEDCRGHTRKQVCDDISRRLALLQEQWAGGKLSIPVKKRMALLVQELSSHRWDAADDIHRSLMVDHVTEVSQWMVGVKRLIAEKRSLFSEEAANEEKSAATAEKNHTIPGFQQAS [SRA1]	0.9	0.0612
MAEPVQEELSVLAAIFCRPHEWEVLSRSETDGTVFRIHTKAEGFMDVDIPLELVFHLPVNYPSCLPGISINSEQLTRAQCVTVKENLLEQAESLLSEPMVHELVLWIQQNLRHILSQPETGSGSEKCTFSTSTTMDDGLWITLLHLDHMRAKTKYVKIVEKWASDLRLTGRLMFMGKIILILLQGDRNNLKEYLILQKTSKVDVDSSGKKCKEKMISVLFETKVQTEHKRFLAFEVKEYSALDELQKEFETAGLKKLFSEFVLALVK [RWDD3]	-0.0953	0.101
MAFGKSHRDPYATSVGHLIEKATFAGVQTEDWGQFMHICDIINTTQDGPKDAVKALKKRISKNYNHKEIQLTLSLIDMCVQNCGPSFQSLIVKKEFVKENLVKLLNPRYNLPLDIQNRILNFIKTWSQGFPGGVDVSEVKEVYLDLVKKGVQFPPSEAEAETARQETAQISSNPPTSVPTAPALSSVIAPKNSTVTLVPEQIGKLHSELDMVKMNVRVMSAILMENTPGSENHEDIELLQKLYKTGREMQERIMDLLVVVENEDVTVELIQVNEDLNNAILGYERFTRNQQRILEQNKNQKEATNTTSEPSAPSQDLLDLSPSPRMPRATLGELNTMNNQLSGLNFSLPSSDVTNNLKPSLHPQMNLLALENTEIPPFAQRTSQNLTSSHAYDNFLEHSNSVFLQPVSLQTIAAAPSNQSLPPLPSNHPAMTKSDLQPPNYYEVMEFDPLAPAVTTEAIYEEIDAHQHKGAQNDGD [TOM1L1]	-0.0535	0.297
MAFK	0.364	0.335
MAGGRCGPQLTALLAAWIAAVAATAGPEEAALPPEQSRVQPMTASNWTLVMEGEWMLKFYAPWCPSCQQTDSEWEAFAKNGEILQISVGKVDVIQEPGLSGRFFVTTLPAFFHAKDGIFRRYRGPGIFEDLQNYILEKKWQSVEPLTGWKSPASLTMSGMAGLFSISGKIWHLHNYFTVTLGIPAWCSYVFFVIATLVFGLFMGLVLVVISECFYVPLPRHLSERSEQNRRSEEAHRAEQLQDAEEEKDDSNEEENKDSLVDDEEEKEDLGDEDEAEEEEEEDNLAAGVDEERSEANDQGPPGEDGVTREEVEPEEAEEGISEQPCPADTEVVEDSLRQRKSQHADKGL [TMX4]	-0.172	0.144
MAGLGLGSAVPVWLAEDDLGCIICQGLLDWPATLPCGHSFCRHCLEALWGARDARRWACPTCRQGAAQQPHLRKNTLLQDLADKYRRAAREIQAGSDPAHCPCPGSSSLSSAAARPRRRPELQRVAVEKSITEVAQELTELVEHLVDIVRSLQNQRPLSESGPDNELSILGKAFSSGVDLSMASPKLVTSDTAAGKIRDILHDLEEIQEKLQESVTWKEAPEAQMQGELLEAPSSSSCPLPDQSHPALRRASRFAQWAIHPTFNLKSLSCSLEVSKDSRTVTVSHRPQPYRWSCERFSTSQVLCSQALSSGKHYWEVDTRNCSHWAVGVASWEMSRDQVLGRTMDSCCVEWKGTSQLSAWHMVKETVLGSDRPGVVGIWLNLEEGKLAFYSVDNQEKLLYECTISASSPLYPAFWLYGLHPGNYLIIKQVKV [RNF135]	-0.147	0.0392
MAGLTLFVGRLPPSARSEQLEELFSQVGPVKQCFVVTEKGSKACRGFGYVTFSMLEDVQRALKEITTFEGCKINVTVAKKKLRNKTKEKGKNENSECPKKEPKAKKAKVADKKARLIIRNLSFKCSEDDLKTVFAQFGAVLEVNIPRKPDGKMRGFGFVQFKNLLEAGKALKGMNMKEIKGRTVAVDWAVAKDKYKDTQSVSAIGEEKSHESKHQESVKKKGREEEDMEEEENDDDDDDDDEEDGVFDDEDEEEENIESKVTKPVQIQKRAVKRPAPAKSSDHSEEDSDLEESDSIDDGEELAQSDTSTEEQEDKAVQVSNKKKRKLPSDVNEGKTVFIRNLSFDSEEEELGELLQQFGELKYVRIVLHPDTEHSKGCAFAQFMTQEAAQKCLLAASPENEAGGLKLDGRQLKVDLAVTRDEAAKLQTTKVKKPTGTRNLYLAREGLIRAGTKAAEGVSAADMAKRERFELLKHQKLKDQNIFVSRTRLCLHNLPKAVDDKQLRKLLLSATSGEKGVRIKECRVMRDLKGVHGNMKGQSLGYAFAEFQEHEHALKALRLINNNPEIFGPLKRPIVEFSLEDRRKLKMKELRIQRSLQKMRSKPATGEPQKGQPEPAKDQQQKAAQHHTEEQSKVPPEQKRKAGSTSWTGFQTKAEVEQVELPDGKKRRKVLALPSHRGPKIRLRDKGKVKPVHPKKPKPQINQWKQEKQQLSSEQVSRKKAKGNKTETRFNQLVEQYKQKLLGPSKGAPLAKRSKWFDS [RBM28]	1.56	-2.35
MAGNFWQSSHYLQWILDKQDLLKERQKDLKFLSEEEYWKLQIFFTNVIQALGEHLKLRQQVIATATVYFKRFYARYSLKSIDPVLMAPTCVFLASKVEEFGVVSNTRLIAAATSVLKTRFSYAFPKEFPYRMNHILECEFYLLELMDCCLIVYHPYRPLLQYVQDMGQEDMLLPLAWRIVNDTYRTDLCLLYPPFMIALACLHVACVVQQKDARQWFAELSVDMEKILEIIRVILKLYEQWKNFDERKEMATILSKMPKPKPPPNSEGEQGPNGSQNSSYSQS [CCNC]	-0.0468	-0.272
MAGPPALPPPETAAAATTAAAASSSAASPHYQEWILDTIDSLRSRKARPDLERICRMVRRRHGPEPERTRAELEKLIQQRAVLRVSYKGSISYRNAARVQPPRRGATPPAPPRAPRGAPAAAAAAAPPPTPAPPPPPAPVAAAAPARAPRAAAAAATAPPSPGPAQPGPRAQRAAPLAAPPPAPAAPPAVAPPAGPRRAPPPAVAAREPPLPPPPQPPAPPQQQQPPPPQPQPPPEGGAVRAGGAARPVSLREVVRYLGGSGGAGGRLTRGRVQGLLEEEAAARGRLERTRLGALALPRGDRPGRAPPAASARPSRSKRGGEERVLEKEEEEDDDEDEDEEDDVSEGSEVPESDRPAGAQHHQLNGERGPQSAKERVKEWTPCGPHQGQDEGRGPAPGSGTRQVFSMAAMNKEGGTASVATGPDSPSPVPLPPGKPALPGADGTPFGCPPGRKEKPSDPVEWTVMDVVEYFTEAGFPEQATAFQEQEIDGKSLLLMQRTDVLTGLSIRLGPALKIYEHHIKVLQQGHFEDDDPDGFLG [SAMD1]	0.323	-0.144
MAGRGSLVSWRAFHGCDSAEELPRVSPRFLRAWHPPPVSARMPTRRWAPGTQCITKCEHTRPKPGELAFRKGDVVTILEACENKSWYRVKHHTSGQEGLLAAGALREREALSADPKLSLMPWFHGKISGQEAVQQLQPPEDGLFLVRESARHPGDYVLCVSFGRDVIHYRVLHRDGHLTIDEAVFFCNLMDMVEHYSKDKGAICTKLVRPKRKHGTKSAEEELARAGWLLNLQHLTLGAQIGEGEFGAVLQGEYLGQKVAVKNIKCDVTAQAFLDETAVMTKMQHENLVRLLGVILHQGLYIVMEHVSKGNLVNFLRTRGRALVNTAQLLQFSLHVAEGMEYLESKKLVHRDLAARNILVSEDLVAKVSDFGLAKAERKGLDSSRLPVKWTAPEALKHGKFTSKSDVWSFGVLLWEVFSYGRAPYPKMSLKEVSEAVEKGYRMEPPEGCPGPVHVLMSSCWEAEPARRPPFRKLAEKLARELRSAGAPASVSGQDADGSTSPRSQEP [MATK]	0.257	-0.238

From the supplement of paper PMC5998384
